In publication PMC7005674:

The sequences below were run against T1, Rap1-Halo (Saccharomyces cerevisiae) (UniProt P11938) (assay: EMSA). Conditions: EMSA (DNA): 50 mM HEPES pH 7.5, 130 mM KCl, 10% glycerol, 0.005% Tween 20, 2 mM Trolox, 3.2% glucose, 50 ng/ul poly-d(I-C), 10 min, room temperature; smTIRF ….
T1 sequence: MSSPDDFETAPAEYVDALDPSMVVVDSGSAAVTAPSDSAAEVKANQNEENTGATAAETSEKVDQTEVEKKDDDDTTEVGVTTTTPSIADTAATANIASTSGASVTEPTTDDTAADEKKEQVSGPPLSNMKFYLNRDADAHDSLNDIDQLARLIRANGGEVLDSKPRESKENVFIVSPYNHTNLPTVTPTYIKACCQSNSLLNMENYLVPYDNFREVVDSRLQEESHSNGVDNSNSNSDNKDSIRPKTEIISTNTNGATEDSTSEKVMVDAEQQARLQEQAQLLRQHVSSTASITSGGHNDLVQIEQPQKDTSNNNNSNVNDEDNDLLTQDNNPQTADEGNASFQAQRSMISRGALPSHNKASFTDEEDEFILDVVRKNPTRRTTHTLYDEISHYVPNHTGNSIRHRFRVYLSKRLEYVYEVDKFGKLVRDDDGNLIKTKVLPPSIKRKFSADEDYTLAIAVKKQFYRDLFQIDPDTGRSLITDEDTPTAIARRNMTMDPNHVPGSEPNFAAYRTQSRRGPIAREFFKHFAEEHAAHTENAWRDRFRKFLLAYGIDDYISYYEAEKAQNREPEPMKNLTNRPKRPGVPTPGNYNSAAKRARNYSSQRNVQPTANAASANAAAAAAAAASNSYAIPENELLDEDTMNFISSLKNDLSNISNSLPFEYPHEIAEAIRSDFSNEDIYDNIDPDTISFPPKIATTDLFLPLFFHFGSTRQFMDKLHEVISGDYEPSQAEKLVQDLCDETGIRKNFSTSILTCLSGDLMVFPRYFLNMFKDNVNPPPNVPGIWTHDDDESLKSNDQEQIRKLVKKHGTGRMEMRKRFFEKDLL

| Sequence | Kd [nM] |
| --- | --- |
| CACACTGTGCCAAGTACTTACGCGGCCGCCCTGGAGAATCCCGGTGCCGAGGTACATCTGTGCACCGTAGACAGCTCTAGCACCGCTTAAACGCACGTACGCGCTGTCCCCCGCGTTTTAACCGCCAAGGGGATTACTCCCTAGTCTCCAGGCACGTGTCAGATACTGCAGAGATCTCTAGATCCATGGAGTACTTGGTCTCAAACC (double strand) [MN S1+3] | 48.5 |
| CACACTGTGCCAAGTACTTACGCGGCCGCCCTGGAGAATCCCGGTGCCGAGGCCGTACATCTGTGCACCGACAGCTCTAGCACCGCTTAAACGCACGTACGCGCTGTCCCCCGCGTTTTAACCGCCAAGGGGATTACTCCCTAGTCTCCAGGCACGTGTCAGATACTGCAGAGATCTCTAGATCCATGGAGTACTTGGTCTCAAACC (double strand) [MN S1+6] | 62.7 |
| CACACTGTGCCAAGTACTTACGCGGCCGCCCTGGAGAATCCCGGTGCCGTACATCTGTGCACCGTCGTAGACAGCTCTAGCACCGCTTAAACGCACGTACGCGCTGTCCCCCGCGTTTTAACCGCCAAGGGGATTACTCCCTAGTCTCCAGGCACGTGTCAGATACTGCAGAGATCTCTAGATCCATGGAGTACTTGGTCTCAAACC (double strand) [MN S1] | 76.4 |
